Experimental data reported in patent US20230074436A1 (DENALI THERAPEUTICS, published 2023).
No end group written: not given here. *: point of attachment. Biotin = O=C1N[C@H]2[C@H](CS[C@H]2CCCCC(=O)*)N1

Tests used:
asyn_113-127_124P [1] = biological target: T1, asyn_113-127_124P (human); assay: Ala-scan peptide ELISA, row F, run 2
T1 construct: substitution is already in the entry; also called pep14
T1 peptide: Biotin-LEDMPVDPDNEPYEM

asyn_113-127_114A [2] = biological target: T2, asyn_113-127_114A (human); assay: Ala-scan peptide ELISA, row F, run 2
T2 construct: substitution is already in the entry; also called pep3
T2 peptide: Biotin-LADMPVDPDNEAYEM

asyn_113-127_121A [3] = biological target: T3, asyn_113-127_121A (human); assay: Ala-scan peptide ELISA, row F, run 2
T3 construct: substitution is already in the entry; also called pep10
T3 peptide: Biotin-LEDMPVDPANEAYEM

asyn_113-127_118A [4] = biological target: T4, asyn_113-127_118A (human); assay: Ala-scan peptide ELISA, row F, run 2
T4 construct: substitution is already in the entry; also called pep7
T4 peptide: Biotin-LEDMPADPDNEAYEM

asyn_113-127_120A [5] = biological target: T5, asyn_113-127_120A (human); assay: Ala-scan peptide ELISA, row F, run 2
T5 construct: substitution is already in the entry; also called pep9
T5 peptide: Biotin-LEDMPVDADNEAYEM

asyn_113-127_125A [6] = biological target: T6, asyn_113-127_125A (human); assay: Ala-scan peptide ELISA, row F, run 2
T6 construct: substitution is already in the entry; also called pep15
T6 peptide: Biotin-LEDMPVDPDNEAAEM

asyn_113-127_127A [7] = biological target: T7, asyn_113-127_127A (human); assay: Ala-scan peptide ELISA, row F, run 2
T7 construct: substitution is already in the entry; also called pep17
T7 peptide: Biotin-LEDMPVDPDNEAYEA

[8] = biological target: T8, biotinylated human alpha-synuclein (human, UniProt P37840 1-140); assay: Ala-scan peptide ELISA, row F, run 2
asyn_113-127_117A [9] = biological target: T9, asyn_113-127_117A (human); assay: Ala-scan peptide ELISA, row F, run 2
T9 construct: substitution is already in the entry; also called pep6
T9 peptide: Biotin-LEDMAVDPDNEAYEM

asyn_113-127_122A [10] = biological target: T10, asyn_113-127_122A (human); assay: Ala-scan peptide ELISA, row F, run 2
T10 construct: substitution is already in the entry; also called pep11
T10 peptide: Biotin-LEDMPVDPDAEAYEM

asyn_113-127_116A [11] = biological target: T11, asyn_113-127_116A (human); assay: Ala-scan peptide ELISA, row F, run 2
T11 construct: substitution is already in the entry; also called pep5
T11 peptide: Biotin-LEDAPVDPDNEAYEM

asyn_113-127_113A [12] = biological target: T12, asyn_113-127_113A (human); assay: Ala-scan peptide ELISA, row F, run 2
T12 construct: substitution is already in the entry; also called pep2
T12 peptide: Biotin-AEDMPVDPDNEAYEM

asyn_113-127_124G [13] = biological target: T13, asyn_113-127_124G (human); assay: Ala-scan peptide ELISA, row F, run 2
T13 construct: substitution is already in the entry; also called pep13
T13 peptide: Biotin-LEDMPVDPDNEGYEM

asyn_113-127_126A [14] = biological target: T14, asyn_113-127_126A (human); assay: Ala-scan peptide ELISA, row F, run 2
T14 construct: substitution is already in the entry; also called pep16
T14 peptide: Biotin-LEDMPVDPDNEAYAM

asyn_113-127_115A [15] = biological target: T15, asyn_113-127_115A (human); assay: Ala-scan peptide ELISA, row F, run 2
T15 construct: substitution is already in the entry; also called pep4
T15 peptide: Biotin-LEAMPVDPDNEAYEM

asyn_113-127_119A [16] = biological target: T16, asyn_113-127_119A (human); assay: Ala-scan peptide ELISA, row F, run 2
T16 construct: substitution is already in the entry; also called pep8
T16 peptide: Biotin-LEDMPVAPDNEAYEM

asyn_113-127_123A [17] = biological target: T17, asyn_113-127_123A (human); assay: Ala-scan peptide ELISA, row F, run 2
T17 construct: substitution is already in the entry; also called pep12
T17 peptide: Biotin-LEDMPVDPDNAAYEM

asyn_113-127 [18] = biological target: T18, asyn_113-127 (human); assay: Ala-scan peptide ELISA, row F, run 2
T18 construct: also called pep1
T18 peptide: Biotin-LEDMPVDPDNEAYEM

asyn_113-127_124P [19] = biological target: T1, asyn_113-127_124P; assay: Ala-scan peptide ELISA, row A, run 2; note: test concentration or dose not given here
asyn_113-127_114A [20] = biological target: T2, asyn_113-127_114A; assay: Ala-scan peptide ELISA, row A, run 2; note: test concentration or dose not given here
asyn_113-127_121A [21] = biological target: T3, asyn_113-127_121A; assay: Ala-scan peptide ELISA, row A, run 2; note: test concentration or dose not given here
asyn_113-127_118A [22] = biological target: T4, asyn_113-127_118A; assay: Ala-scan peptide ELISA, row A, run 2; note: test concentration or dose not given here
asyn_113-127_120A [23] = biological target: T5, asyn_113-127_120A; assay: Ala-scan peptide ELISA, row A, run 2; note: test concentration or dose not given here
asyn_113-127_125A [24] = biological target: T6, asyn_113-127_125A; assay: Ala-scan peptide ELISA, row A, run 2; note: test concentration or dose not given here
asyn_113-127_127A [25] = biological target: T7, asyn_113-127_127A; assay: Ala-scan peptide ELISA, row A, run 2
[26] = biological target: T8, biotinylated human alpha-synuclein; assay: Ala-scan peptide ELISA, row A, run 2
asyn_113-127_117A [27] = biological target: T9, asyn_113-127_117A; assay: Ala-scan peptide ELISA, row A, run 2
asyn_113-127_122A [28] = biological target: T10, asyn_113-127_122A; assay: Ala-scan peptide ELISA, row A, run 2
asyn_113-127_116A [29] = biological target: T11, asyn_113-127_116A; assay: Ala-scan peptide ELISA, row A, run 2
asyn_113-127_113A [30] = biological target: T12, asyn_113-127_113A; assay: Ala-scan peptide ELISA, row A, run 2
asyn_113-127_124G [31] = biological target: T13, asyn_113-127_124G; assay: Ala-scan peptide ELISA, row A, run 2
asyn_113-127_126A [32] = biological target: T14, asyn_113-127_126A; assay: Ala-scan peptide ELISA, row A, run 2
asyn_113-127_115A [33] = biological target: T15, asyn_113-127_115A; assay: Ala-scan peptide ELISA, row A, run 2
asyn_113-127_119A [34] = biological target: T16, asyn_113-127_119A; assay: Ala-scan peptide ELISA, row A, run 2
asyn_113-127_123A [35] = biological target: T17, asyn_113-127_123A; assay: Ala-scan peptide ELISA, row A, run 2
asyn_113-127 [36] = biological target: T18, asyn_113-127; assay: Ala-scan peptide ELISA, row A, run 2

- A450 (asyn_113-127_124P [1]): 0.047 OD
- A450 (asyn_113-127_114A [2]): 0.139 OD
- A450 (asyn_113-127_121A [3]): 0.143 OD
- A450 (asyn_113-127_118A [4]): 0.172 OD
- A450 (asyn_113-127_120A [5]): 0.111 OD
- A450 (asyn_113-127_125A [6]): 0.051 OD
- A450 (asyn_113-127_127A [7]): 0.162 OD
- A450 [8]: 0.284 OD
- A450 (asyn_113-127_117A [9]): 0.163 OD
- A450 (asyn_113-127_122A [10]): 0.049 OD
- A450 (asyn_113-127_116A [11]): 0.165 OD
- A450 (asyn_113-127_113A [12]): 0.159 OD
- A450 (asyn_113-127_124G [13]): 0.133 OD
- A450 (asyn_113-127_126A [14]): 0.169 OD
- A450 (asyn_113-127_115A [15]): 0.075 OD
- A450 (asyn_113-127_119A [16]): 0.045 OD
- A450 (asyn_113-127_123A [17]): 0.151 OD
- A450 (asyn_113-127 [18]): 0.148 OD
- A450 (asyn_113-127_124P [19]): 0.069 OD
- A450 (asyn_113-127_114A [20]): 0.401 OD
- A450 (asyn_113-127_121A [21]): 0.391 OD
- A450 (asyn_113-127_118A [22]): 0.441 OD
- A450 (asyn_113-127_120A [23]): 0.314 OD
- A450 (asyn_113-127_125A [24]): 0.078 OD
- A450 (asyn_113-127_127A [25]): 0.504 OD
- A450 [26]: 0.907 OD
- A450 (asyn_113-127_117A [27]): 0.462 OD
- A450 (asyn_113-127_122A [28]): 0.08 OD
- A450 (asyn_113-127_116A [29]): 0.418 OD
- A450 (asyn_113-127_113A [30]): 0.44 OD
- A450 (asyn_113-127_124G [31]): 0.396 OD
- A450 (asyn_113-127_126A [32]): 0.469 OD
- A450 (asyn_113-127_115A [33]): 0.405 OD
- A450 (asyn_113-127_119A [34]): 0.06 OD
- A450 (asyn_113-127_123A [35]): 0.441 OD
- A450 (asyn_113-127 [36]): 0.374 OD
B1: 20H4 (antibody, rat IgG2b, V domains shown)
VH: AVQLVESGGGLVQPKESLKISCAASGFTFSNAAMYWVRQAPGKGLELLARIRTKPNNYATYHADSVKGRFTISRDDSQSMVYLHMGNLKTEDTAMYYCTADMATGDYWGPGVMVTVSS
VL: DIQMTQSPPVLSVSVGDRVTLSCKASQNINKNLDWYQQKHGEAPKPLIYSTNNLQTGVPSRFSGSGSGTDYTLTISSLQPEDVATYYCYQYKSAWTFGGGTKLELR
notes: also called clone 20H4; rat 20H4
